Results: publication PMC4759655 (Immunity, 2016)

Biological target: the molecule itself
Test: cross-linking

B1: CD45 protein tyrosine phosphatase (receptor, UniProt P06800 26-1293, looked up)
chain: QTPTPSDELSTTENALLLPQSDPLPARTTESTPPSISERGNGSSETTYHPGVLSTLLPHLSPQPDSQTPSAGGADTQTFSSQADNPTLTPAPGGGTDPPGVPGERTVPGTIPADTAFPVDTPSLARNSSAASPTHTSNVSTTDISSGASLTTLTPSTLGLASTDPPSTTIATTTKQTCAAMFGNITVNYTYESSNQTFKADLKDVQNAKCGNEDCENVLNNLEECSQIKNISVSNDSCAPATTIDLYVPPGTDKFSLHDCTPKEKANTSICLEWKTKNLDFRKCNSDNISYVLHCEPENNTKCIRRNTFIPERCQLDNLRAQTNYTCVAEILYRGVKLVKNVINVQTDLGIPETPKPSCGDPAARKTLVSWPEPVSKPESASKPHGYVLCYKNNSEKCKSLPNNVTSFEVESLKPYKYYEVSLLAYVNGKIQRNGTAEKCNFHTKADRPDKVNGMKTSRPTDNSINVTCGPPYETNGPKTFYILVVRSGGSFVTKYNKTNCQFYVDNLYYSTDYEFLVSFHNGVYEGDSVIRNESTNFNAKALIIFLVFLIIVTSIALLVVLYKIYDLRKKRSSNLDEQQELVERDDEKQLMDVEPIHSDILLETYKRKIADEGRLFLAEFQSIPRVFSKFPIKDARKPHNQNKNRYVDILPYDYNRVELSEINGDAGSTYINASYIDGFKEPRKYIAAQGPRDETVDDFWRMIWEQKATVIVMVTRCEEGNRNKCAEYWPSMEEGTRAFKDIVVTINDHKRCPDYIIQKLNVAHKKEKATGREVTHIQFTSWPDHGVPEDPHLLLKLRRRVNAFSNFFSGPIVVHCSAGVGRTGTYIGIDAMLEGLEAEGKVDVYGYVVKLRRQRCLMVQVEAQYILIHQALVEYNQFGETEVNLSELHSCLHNMKKRDPPSDPSPLEAEYQRLPSYRSWRTQHIGNQEENKKKNRNSNVVPYDFNRVPLKHELEMSKESEPESDESSDDDSDSEETSKYINASFVMSYWKPEMMIAAQGPLKETIGDFWQMIFQRKVKVIVMLTELVNGDQEVCAQYWGEGKQTYGDMEVEMKDTNRASAYTLRTFELRHSKRKEPRTVYQYQCTTWKGEELPAEPKDLVSMIQDLKQKLPKASPEGMKYHKHASILVHCRDGSQQTGLFCALFNLLESAETEDVVDVFQVVKSLRKARPGVVCSYEQYQFLYDIIASIYPAQNGQVKKTNSQDKIEFHNEVDGGKQDANCVRPDGPLNKAQEDSRGVGTPEPTNSAEEPEHAANGSASPAPTQSS
  stoichiometry N: 2
